In US20230263867:

Assays:
[1] = tested on: fluorescent tripeptidyl substrate PRR, MeOC-GGG-PRR-GG-DPA-KK-NH2
[2] = tested on: recombinant pro-fruit bromelain
[3] = tested on: recombinant pro-stem bromelain
[4] = target: albumin in human plasma / human serum (UniProt P02768)
[5] = tested on: T1, FVR-7-amino-4-methylcoumarin
T1 sequence: FVR

Chain of UniProt P02768 (P02768 whole entry, looked up): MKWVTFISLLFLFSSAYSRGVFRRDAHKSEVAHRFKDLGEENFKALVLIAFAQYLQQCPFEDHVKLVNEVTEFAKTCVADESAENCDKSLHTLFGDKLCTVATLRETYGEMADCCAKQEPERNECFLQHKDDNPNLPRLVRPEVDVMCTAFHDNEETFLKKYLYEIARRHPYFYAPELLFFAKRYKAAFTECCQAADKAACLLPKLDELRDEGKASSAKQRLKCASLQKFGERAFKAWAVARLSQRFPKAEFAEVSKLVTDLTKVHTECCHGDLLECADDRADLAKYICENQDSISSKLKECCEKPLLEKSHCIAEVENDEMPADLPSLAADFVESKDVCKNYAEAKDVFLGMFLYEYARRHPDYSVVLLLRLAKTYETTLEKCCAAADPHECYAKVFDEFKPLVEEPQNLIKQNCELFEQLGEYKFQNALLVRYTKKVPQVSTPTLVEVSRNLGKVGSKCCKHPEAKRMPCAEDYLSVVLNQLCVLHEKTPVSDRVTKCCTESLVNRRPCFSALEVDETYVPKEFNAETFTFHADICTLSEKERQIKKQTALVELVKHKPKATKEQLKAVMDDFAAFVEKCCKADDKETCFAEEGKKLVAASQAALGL

In the case of activated stem bromelain, the “initial rate of proteolysis of PRR (fluorescence)” value [1] is reported as “about 0.024 µg PRR molecules per min”.
“active ananain (recombinant, obtained by activation of pro-ananain)” was tested, and the “cleavage of pro-FB on an ananain-immobilized column, SDS-PAGE” value [2] was “The collected activated FB was subject to SDS-PAGE analysis and was confirmed to be fully activated”, the “cleavage of pro-SB by active ananain, SDS-PAGE time course” value [3] was “mixing active ananain and pro-SB at a weight ratio of 1:25 led to a complete cleavage of pro-SB within 10 min, resulting in two fragments of 24 and 12 kDa” and the “cleavage of pro-SB on an ananain-immobilized column, SDS-PAGE” value [3] was “The collected activated SB was subject to SDS-PAGE analysis and was confirmed to be fully activated”. The “proteolysis of human plasma/serum proteins, SDS-PAGE” value [4] was “The clear reduction of albumin in sample A, C and D in the presence of ananain indicates that albumin is a protein substrate for ananain”.
recombinant pro-fruit bromelain was tested, and the “proteolysis of FVR-AMC (fluorescence)” value [5] was “pro-FB did not cleave FVR-AMC at all”.
In the case of recombinant pro-stem bromelain, the “initial rate of proteolysis of PRR (fluorescence)” value [1] is reported as “the cleavage of PRR by 100 nM Pro-SB was negligible”.
